Source: PMC8776337, “Peptides Derived from Vascular Endothelial Growth Factor B Show Potent Binding to Neuropilin‐1” (Chembiochem, 2021)
No end group written: not given here.

B3: b1 domain of neuropilin‐1 (NRP1‐b1) (domain or fragment, human)
chain: FKCMEALGMESGEIHSDQITASSQYSTNWSAERSRLNYPENGWTPGEDSYREWIQVDLGLLRFVTAVGTQGAISKETKKKYYVKTYKIDVSSNGEDWITIKEGNKPVLFQGNTNPTDVVVAVFPKPLITRFVRIKPATWETGISMRFEVYGCKIT
notes: neuropilin-1, human, b1 domain; also called NRP1‐b1 domain; NRP1 b1 domain; source: E. coli Rosetta (DE3), purified (HisTrap, TEV cleavage, Superdex 75, SP FF ion exchange)

What was measured:
[1] = target: T1, NRP1‐b1 binding to VEGF‐A165 (Homo sapiens, UniProt O14786); test: SPR EG01377 competition assay, NRP1-b1 binding to immobilised VEGF-A165; conditions: NRP1-b1 5 μM, EG01377 1.25 to 10 μM, 60 s
T1 construct: poly-histidine (TEV-cleavable) (cleaved yes); made in house; host or cells: E. coli Rosetta (DE3) (NRP1-b1 only)
T1 sequence (O14786 275-424 limits assumed): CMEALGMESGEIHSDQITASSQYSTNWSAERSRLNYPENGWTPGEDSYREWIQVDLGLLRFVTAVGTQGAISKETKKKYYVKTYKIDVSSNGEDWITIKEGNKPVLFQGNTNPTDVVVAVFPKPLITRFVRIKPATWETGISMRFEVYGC
From the text: (§1) We have previously reported the use of SPR to characterise the interaction between the immobilized b1 domain of NRP1 (NRP1‐b1) and VEGF‐A‐derived peptides,[23] arginine analogues,[26] and small molecules.[27, 28] When we attempted to measure the binding affinity of VEGF‐B isoforms to immobilized NRP1‐b1 we observed non‐saturable binding responses. Increasing concentrations of VEGF‐B over immobilised NRP1 led to response units (RU) higher than the theoretical maximum for a 1 : 1 interaction. The shape of the curves remained consistent at low and high concentration and was not typical of sample precipitation (fuzzy heterogeneous curves, commonly observed only at higher concentrations). […] We consider that the observations are consistent with oligomerization as a form of non‐specific binding. […] To circumvent this, we immobilized VEGF‐B167 and VEGF‐A165 (Figure 2) onto a sensor chip and measured the binding of NRP1‐b1 domain in solution. Using this method, the binding affinity of NRP1‐b1 to immobilized VEGF‐A165 was 100‐fold lower than previously observed when the interaction was measured in reverse experimental configuration.[23] […] We then sought to investigate if binding could be blocked by a known inhibitor of the VEGF‐A interaction with NRP1‐b1. […]

VEGFs = test: SPR direct binding of EG01377 to immobilised VEGFs; parameters: species or system human; conditions: immobilised VEGF-A165 and VEGF-B167
From the text: as §1

[2] = target: T2, NRP1‐b1 binding to VEGF‐B167 (Homo sapiens, UniProt O14786); test: SPR EG01377 competition assay, NRP1-b1 binding to immobilised VEGF-B167; conditions: NRP1-b1 5 μM, EG01377 6.25 to 50 μM, 60 s
T2 construct: poly-histidine (TEV-cleavable) (cleaved yes); made in house; host or cells: E. coli Rosetta (DE3) (NRP1-b1 only)
T2 sequence (O14786 275-424 limits assumed): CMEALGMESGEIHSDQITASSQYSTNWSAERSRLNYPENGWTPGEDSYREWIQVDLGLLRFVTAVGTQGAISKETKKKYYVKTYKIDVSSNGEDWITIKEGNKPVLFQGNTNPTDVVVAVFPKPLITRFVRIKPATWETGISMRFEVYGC
From the text: as §1

NRP1‐b1 = target: T3, NRP1‐b1 (Homo sapiens, UniProt O14786); test: SPR binding of NRP1-b1 in solution to immobilised VEGFs; conditions: VEGF immobilised on CM5 chip, NRP1-b1 0.25 to 64 μM in PBS, 60 s, steady-state, 1:1 interaction, 25 °C, read-out: KD of NRP1‐b1 for immobilized VEGF
T3 construct: the immobilized b1 domain of NRP1 (NRP1‐b1); poly-histidine (TEV-cleavable) (cleaved yes); made in house; host or cells: E. coli Rosetta (DE3)
T3 sequence (O14786 275-424 limits assumed): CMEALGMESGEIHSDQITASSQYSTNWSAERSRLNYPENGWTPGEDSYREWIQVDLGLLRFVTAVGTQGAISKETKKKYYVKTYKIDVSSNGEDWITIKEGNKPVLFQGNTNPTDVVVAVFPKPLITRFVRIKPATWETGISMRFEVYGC
From the text: We have previously reported the use of SPR to characterise the interaction between the immobilized b1 domain of NRP1 (NRP1‐b1) and VEGF‐A‐derived peptides,[23] arginine analogues,[26] and small molecules.[27, 28] When we attempted to measure the binding affinity of VEGF‐B isoforms to immobilized NRP1‐b1 we observed non‐saturable binding responses. Increasing concentrations of VEGF‐B over immobilised NRP1 led to response units (RU) higher than the theoretical maximum for a 1 : 1 interaction. The shape of the curves remained consistent at low and high concentration and was not typical of sample precipitation (fuzzy heterogeneous curves, commonly observed only at higher concentrations). […] We consider that the observations are consistent with oligomerization as a form of non‐specific binding. […] To circumvent this, we immobilized VEGF‐B167 and VEGF‐A165 (Figure 2) onto a sensor chip and measured the binding of NRP1‐b1 domain in solution. Using this method, the binding affinity of NRP1‐b1 to immobilized VEGF‐A165 was 100‐fold lower than previously observed when the interaction was measured in reverse experimental configuration.[23] […]
Binding of NRP1‐b1 to VEGFs: Dose responses were obtained by injecting NRP1‐b1 in PBS over the immobilized VEGFs for 60 s, using two‐fold dilutions from 64 to 0.25 μM. Steady‐state binding affinities were calculated assuming a 1 : 1 interaction.

[3] = target: B3; test: SPR; NRP1-b1 immobilised on a CM5 chip by random amine coupling; peptides injected for 60 s, 120 or 180 s dissociation; 25 °C; regeneration with 1 M NaCl; kinetic fit, 1:1 model (MGC0122, MGC0123, MGC0124) or two-state model (MGC0171, MGC0172, MGC0173, MGC0174); conditions: both partners purified
VEGF‐B167 = target: T4, VEGF‐B167 (human, UniProt P49765-2 22-188); test: SPR; VEGF-A165 and VEGF-B167 immobilised on a CM5 chip by random amine coupling; NRP1-b1 in PBS injected for 60 s, two-fold dilutions from 64 to 0.25 μM; 25 °C; steady-state affinity assuming a 1:1 interaction; conditions: both partners purified
T4 construct: vascular endothelial growth factor B, isoform VEGF-B167, human
T4 sequence (looked up): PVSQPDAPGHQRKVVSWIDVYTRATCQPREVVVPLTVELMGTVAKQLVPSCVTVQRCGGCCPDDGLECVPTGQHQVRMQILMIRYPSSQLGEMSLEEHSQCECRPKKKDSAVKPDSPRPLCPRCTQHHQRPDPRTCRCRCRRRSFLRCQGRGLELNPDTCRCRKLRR

VEGF‐A165 = target: T5, VEGF‐A165 (human, UniProt P15692-4 1-191); test: as above; conditions: both partners purified
T5 construct: vascular endothelial growth factor A, isoform VEGF-A165, human
T5 sequence (P15692 other isoform, or with tags, fused parts or gaps): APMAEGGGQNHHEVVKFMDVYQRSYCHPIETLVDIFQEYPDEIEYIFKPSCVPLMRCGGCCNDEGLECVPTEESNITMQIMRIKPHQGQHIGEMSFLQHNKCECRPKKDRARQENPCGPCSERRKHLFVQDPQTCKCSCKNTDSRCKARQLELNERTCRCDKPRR

NCc1ccc(-c2cc3c(c(S(=O)(=O)Nc4ccsc4C(=O)N[C@@H](CCCN=C(N)N)C(=O)O)c2)OCC3)cc1 [EG01377]
Effect on binding of NRP1‐b1 to immobilised VEGF‐A165 [1]: reduced the binding | Binding to VEGFs (VEGFs): No binding was observed | Effect on binding of NRP1‐b1 to immobilised VEGF‐B167 [2]: reduced the binding

VEGF‐A165: Vascular endothelial growth factor A isoform 165, immobilised on the sensor chip
Kd (NRP1‐b1): 9 µM

B1: VEGF‐B167: Vascular endothelial growth factor B isoform 167, immobilised on the sensor chip (protein)
chain: PVSQPDAPGHQRKVVSWIDVYTRATCQPREVVVPLTVELMGTVAKQLVPSCVTVQRCGGCCPDDGLECVPTGQHQVRMQILMIRYPSSQLGEMSLEEHSQCECRPKKKDSAVKPDSPRPLCPRCTQHHQRPDPRTCRCRCRRRSFLRCQGRGLELNPDTCRCRKLRR
Kd (NRP1‐b1): 36 µM

B2: MGC0124 (peptide)
chain: SCKNTDSRCKARQLELNERTCRCDKPRR
modifications: disulfide (positions not given here); not fully specified (N-terminus); also: cyclised by disulphide, Cys pairing not given here
Kd [3]: 3.33 ± 0.1 µM

B3
Kd (VEGF‐B167): 36 µM | Kd (VEGF‐A165): 9 µM
